Measured values as given in the supplement of paper PMC10567573.

B1: WSB1 (parent)
chain: DLKDDGNMMKVLRGHQNWVYSCAF
B2: GAGE1 (parent)
chain: RPRRYVQPPEMIGPMRPEQFSDEV

Variants of: B1
Assay: protein stability index of a GFP-peptide fusion (GPS, HEK-293T) (PSI 1-6); higher = more stable
Conditions: c terminus: a fixed tail appended
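Further: lentivirally expressed fusions sorted by FACS into six bins by GFP to DsRed ratio, PSI derived from sequencing read proportions per bin multiplied by bin number.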

Protein stability index: each site, then its substitutions
H15: N 2.81; P 2.65; Q 1.5; R 1.91; S 1.88; T 1.92; W 1.94
Q16: A 2.32; C 2.3; D 1.71; E 2.36; F 2.8; H 2.75; I 2.04; K 2.41; L 1.48; M 2.04; N 1.79; P 2.52; S 2.54; T 2.79; V 1.52; Y 1.4
N17: A 2.33; D 1.94; E 1.68; F 2.34; G 1.78; H 1.26; K 2.1; P 1.86; Q 2.95; R 2.05; S 1.81
W18: A 2.49; C 2.38; D 1.69; E 2.62; F 1.47; G 2.21; H 2.34; I 2.35; K 1.46; L 2.88; M 2.75; N 2.24; P 1.86; Q 2.73; R 1.65; S 2.7; T 2.08; V 1.07; Y 2.09
V19: A 2.53; C 2.73; D 2.15; F 1.34; G 2.66; H 2.12; I 2.13; K 1.75; L 2.22; M 2.52; N 1.44; P 2.03; Q 2.07; R 2.86; S 1.04; T 1.71; W 2.28; Y 2.87
Y20: A 2.28; C 3.17; D 1.69; E 1.6; F 1.66; G 1.97; H 2.06; K 1.39; L 2.57; M 1.61; P 1.84; Q 1.68; R 2.05; S 1.83; T 2.63; V 3.3; W 2.28
S21: A 2.3; D 2.05; E 1.94; G 2.27; H 2.05; K 1.07; N 1.46; P 2.05; R 1.22; T 1.07; Y 3.37
C22: A 2.25; D 3.46; E 2.39; F 2.98; G 1.69; H 1.33; I 2.86; K 1.77; L 3.06; M 2.61; N 1.81; P 2.01; Q 2.15; R 2.33; S 1.61; T 1.9; Y 1.72
A23: C 2.5; E 2.24; F 2.17; G 1.73; H 1.75; I 1.43; K 1.31; L 1.22; M 1.44; N 2.22; P 2.5; R 2.36; S 2.94; T 1.6; V 1.71; Y 2.29
F24: A 2.14; C 1.47; D 3.3; E 1.82; G 2.19; H 3.34; I 2.28; K 2.34; L 3.07; M 2.27; N 2.18; P 2.95; Q 2.21; R 2.33; S 2.89; T 1.98; V 2.97; W 4.14; Y 2.38

Variants of: B2
Assay: as above
Conditions: c terminus: a fixed tail appended

Protein stability index of substitutions, site by site:
R1: A 3.63; C 4.07; D 4.33; E 4.23; F 3.24; G 3.85; H 3.94; I 3.7; K 3.96; L 3.96; M 3.98; N 3.93; P 3.8; Q 4.23; S 3.73; T 4.01; V 3.59; W 2.74; Y 3.29
P2: A 3.59; C 2.99; D 3.98; E 4.12; F 2.81; G 3.59; H 3.61; I 2.5; K 3.24; L 2.99; M 3.24; N 3.51; Q 3.45; R 4.1; S 3.92; T 3.33; V 3.5; W 2.14; Y 2.21
R3: A 3.74; C 3.1; D 4.28; E 4.51; F 2.21; G 3.96; H 3.83; I 4.23; K 4.02; L 2.88; M 3.89; N 4.07; P 4.04; Q 4.11; S 4.26; T 4.3; V 4.03; W 2.6; Y 3.1
R4: A 3.94; C 3.64; D 4.46; E 3.92; F 3.88; G 4.12; H 3.43; I 3.43; K 3.69; L 4.04; M 4.07; N 3.72; P 4.11; Q 4.66; S 4.05; T 3.98; V 3.89; W 3.09; Y 3.79
Y5: A 4.38; C 3.2; D 4.22; E 4.55; F 3.78; G 4.49; H 3.81; I 3.31; K 4.43; L 3.31; M 3.47; N 4.17; P 4.32; Q 4.2; R 3.91; S 4; T 4.45; V 4.41; W 3.61
V6: A 3.3; C 3.63; D 4.34; E 3.92; F 3.39; G 4.18; H 3.69; I 3.94; K 3.83; L 3.69; M 3.59; N 3.9; P 4.06; Q 3.59; R 3.6; S 4.17; T 3.66; W 3.18; Y 3.01
Q7: A 3.77; C 4.04; D 3.8; E 3.86; F 3.87; G 3.3; H 4.14; I 3.63; K 4.02; L 3.85; M 3.52; N 3.64; P 3.96; R 3.29; S 4.24; T 4.01; V 3.57; W 3.73; Y 3.73
P8: A 3.71; C 3.61; D 4.31; E 4.54; F 3.41; G 4.51; H 4.18; I 3.27; K 3.98; L 3.31; M 3.48; N 4.22; Q 3.37; R 3.93; S 4.36; T 4.12; V 3.5; W 3.09; Y 3.52
P9: A 3.75; C 4.24; D 4.61; E 4.71; F 3.79; G 4.46; H 3.82; I 3.57; K 4.13; L 4; M 3.92; N 3.97; Q 4.52; R 4.36; S 4.29; T 4.28; V 2.61; W 3.77; Y 3.62
E10: A 4.15; C 3.13; D 4.51; F 3.88; G 4.16; H 4.32; I 3.69; K 4.48; L 3.39; M 4; N 3.97; P 4.25
